Drawing on patent US20260274954A1 (published 2026), this text covers Bmax for nine molecules.

Assay [1] concerns the target cynomolgus PD-1 protein (construct not stated) (cynomolgus) (UniProt B0LAJ3). As to the kind of experiment: ELISA, second round mutagenesis library screen; unit not given. (In general: An ELISA detects its analyte on a solid surface through an enzyme-linked reagent.)
The target of assay [2] is T1, cynomolgus PD-1 protein (construct not stated) (cynomolgus, UniProt B0LAJ3 25-170).
T1 construct: not shown: tag or Fc carrier of the recombinant (Sino Biological) cynomolgus PD-1
T1 sequence (B0LAJ3 entry or part of it limits assumed, form in doubt): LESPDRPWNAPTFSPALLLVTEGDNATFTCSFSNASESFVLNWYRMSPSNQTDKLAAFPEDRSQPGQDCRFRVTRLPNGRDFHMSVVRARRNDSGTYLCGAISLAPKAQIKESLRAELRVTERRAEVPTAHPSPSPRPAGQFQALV
The assay is described as above.

Chain of cynomolgus PD-1 protein (construct not stated) (cynomolgus) (B0LAJ3 entry or part of it limits assumed): as the sequence (B0LAJ3 entry or part of it limits assumed, form in doubt) above

B1: L1I (antibody, V domains shown)
VH: QVQLVQSGAEVKKPGSSVKVSCKASGFTFTTYYISWVRQAPGQGLEYLGYINMGSGGTNYNEKFKGRVTITADKSTSTAYMELSSLRSEDTAVYYCAIIGYFDYWGQGTMVTVSS
VL: DVVMTQSPLSLPVTLGQPASISCRSSQSLLDSDGNTYLYWFQQRPGQSPRRLIYLVSTLGSGVPDRFSGSGSGTDFTLKISRVEAEDVGVYYCMQLTHAPYTFGQGTKLEIK
For the molecule B1, the Bmax in assay [1] stood at 0.0517.

B2: 2B1 (antibody, V domains shown)
VH: QVQLVQSGAEVKKPGSSVKVSCKASGFTFTTYYISWVRQAPGQGLEYLGYINMGSGGTNYNEKFKGRVTITADKSTSTAYMELSSLRSEDTAVYYCAIIGYFDYWGQGTMVTVSS
VL: DVVMTQSPLSLPVTLGQPASISCRSSQSLLDSDGNTYLYWFQQRPGQSPRRLIYLVSTLGSGVPDRFSGSGSGTDFTLKISRVEAEDVGVYYCMQLTHWPYTFGQGTKLEIK
For the molecule B2, the Bmax in assay [2] worked out at 1.21.

B3: 2E5 (antibody, V domains shown)
VH: QVQLVQSGAEVKKPGSSVKVSCKASGFTFTTYYISWVRQAPGQGLEYLGYINMGSGGTNYNEKFKGRVTITADKSTSTAYMELSSLRSEDTAVYYCAIIGYFDYWGQGTMVTVSS
VL: DVVMTQSPLSLPVTLGQPASISCRSSQSLLDSDGGTYLYWFQQRPGQSPRRLIYLVSTLGSGVPDRFSGSGSGTDFTLKISRVEAEDVGVYYCMQLTHWPYTFGQGTKLEIK
In turn, B3 showed a Bmax in assay [2] of 1.72.

B4: 2C2 (antibody, V domains shown)
VH: QVQLVQSGAEVKKPGSSVKVSCKASGFTFTTYYISWVRQAPGQGLEYLGYINMGSGGTNYNEKFKGRVTITADKSTSTAYMELSSLRSEDTAVYYCAIIGYFDYWGQGTMVTVSS
VL: DVVMTQSPLSLPVTLGQPASISCRSSQSLLDSDGATYLYWFQQRPGQSPRRLIYLVSTLGSGVPDRFSGSGSGTDFTLKISRVEAEDVGVYYCMQLTHWPYTFGQGTKLEIK
For the molecule B4, the Bmax in assay [2] stood at 1.67.

B5: 8C10 (antibody, V domains shown)
VH: QVQLVQSGAEVKKPGSSVKVSCKASGFTFTTYYISWVRQAPGQGLEYLGYINMGSGGTNYNEKFKGRVTITADKSTSTAYMELSSLRSEDTAVYYCAIIGYFDYWGQGTMVTVSS
VL: DVVMTQSPLSLPVTLGQPASISCRSSQSLLDSDGQTYLYWFQQRPGQSPRRLIYLVSTLGSGVPDRFSGSGSGTDFTLKISRVEAEDVGVYYCMQLTHENYTFGQGTKLEIK
As for B5, the Bmax in assay [2] is 1.11.

B6: 1H6 (antibody, V domains shown)
VH: QVQLVQSGAEVKKPGSSVKVSCKASGFTFTTYYISWVRQAPGQGLEYLGYINMGSGGTNYNEKFKGRVTITADKSTSTAYMELSSLRSEDTAVYYCAILGYFDYWGQGTMVTVSS
VL: DVVMTQSPLSLPVTLGQPASISCRSSQSLLDSDGGTYLYWFQQRPGQSPRRLIYLVSTLGSGVPDRFSGSGSGTDFTLKISRVEAEDVGVYYCMQLTHWPYTFGQGTKLEIK
Take B6: the Bmax in assay [2] was found to be 0.317.

B7: 1G10 (antibody, V domains shown)
VH: QVQLVQSGAEVKKPGSSVKVSCKASGFTFTTYYISWVRQAPGQGLEYLGYINMGSGGTNYNEKFKGRVTITADKSTSTAYMELSSLRSEDTAVYYCAILGYFDYWGQGTMVTVSS
VL: DVVMTQSPLSLPVTLGQPASISCRSSQSLLDSDGATYLYWFQQRPGQSPRRLIYLVSTLGSGVPDRFSGSGSGTDFTLKISRVEAEDVGVYYCMQLTHWPYTFGQGTKLEIK
Regarding B7, the Bmax in assay [2] was 1.08.

B8: 5C4 (antibody, V domains shown)
VH: QVQLVQSGAEVKKPGSSVKVSCKASGFTFTTYYISWVRQAPGQGLEYLGYINMGSGGTNYNEKFKGRVTITADKSTSTAYMELSSLRSEDTAVYYCAILGYFDYWGQGTMVTVSS
VL: DVVMTQSPLSLPVTLGQPASISCRSSQSLLDSDGQTYLYWFQQRPGQSPRRLIYLVSTLGSGVPDRFSGSGSGTDFTLKISRVEAEDVGVYYCMQLTHEPYTFGQGTKLEIK
As for B8, the Bmax in assay [2] stood at 0.258.

B9: 2G4 (antibody, V domains shown)
VH: QVQLVQSGAEVKKPGSSVKVSCKASGFTFTTYYISWVRQAPGQGLEYLGYINMGSGGTNYNEKFKGRVTITADKSTSTAYMELSSLRSEDTAVYYCAIIGYFDYWGQGTMVTVSS
VL: DVVMTQSPLSLPVTLGQPASISCRSSQSLLDSDGSTYLYWFQQRPGQSPRRLIYLVSTLGSGVPDRFSGSGSGTDFTLKISRVEAEDVGVYYCMQLTHWPYTFGQGTKLEIK
For B9, in assay [2], the Bmax is 1.72.
